This data set deals with the molecule itself. Description: native MS; rBos d 2 in 10 mM ammonium acetate, pH 6.9; protein (monomer) concentration 0-90 μM; monomer-dimer ratio from ion intensities, fit of free monomer against total protein; dimer to monomers.

B1: recombinant bovine dander lipocalin allergen Bos d 2 (natural protein, bovine (cow), UniProt Q28133 17-172, looked up)
chain: QETPAEIDPSKIPGEWRIIYAAADNKDKIVEGGPLRNYYRRIECINDCESLSITFYLKDQGTCLLLTEVAKRQEGYVYVLEFYGTNTLEVIHVSENMLVTYVENYDGERITKMTEGLAKGTSFTPEELEKYQQLNSERGVPNENIENLIKTDNCPP
modifications: a substantial amount of the molecules contained a pyrrolidone carboxylic acid (PCA) formed by cyclization of the N-terminal glutamine; partly oxidized, probably at a single methionine; two disulfide bonds
notes: Bos d 2, bovine (cow) dander lipocalin allergen; also called rBos d 2
For the protein B1, the Kd – broadly, the concentration at which binding is half-saturated – turned out to be 340 ± 20 µM and the stoichiometry N (commonly a count of units in the complex or per binding partner) stood at 2.

The values above are taken from publication PMC4561914 (Scientific Reports, 2015).
